Laboratory results from paper PMC4372372.

Biological target: rPmMasSPH1 (His-tagged recombinant C-terminal SP-like domain of PmMasSPH1) (Penaeus monodon)

Substance: rPmPPAE2 (His-tagged recombinant SP domain of PmPPAE2) (domain or fragment)
- PGN-triggered PO activity of shrimp hemolymph in vitro (L-DOPA, change of A490 at 5 min), with 0.25 ug PGN and 1 uM of each recombinant protein, relative to hemolymph alone: 102%
